Measured values taken from paper PMC4651853 (DNA repair, 2015).
Values joined by “and” are separate entries in the source; they are usually repeats but may differ in a detail not shown here. Equal entries are not always repeated.

B1: MutS (natural protein, E. coli, UniProt P23909 1-853, looked up)
chain: MSAIENFDAHTPMMQQYLRLKAQHPEILLFYRMGDFYELFYDDAKRASQLLDISLTKRGASAGEPIPMAGIPYHAVENYLAKLVNQGESVAICEQIGDPATSKGPVERKVVRIVTPGTISDEALLQERQDNLLAAIWQDSKGFGYATLDISSGRFRLSEPADRETMAAELQRTNPAELLYAEDFAEMSLIEGRRGLRRRPLWEFEIDTARQQLNLQFGTRDLVGFGVENAPRGLCAAGCLLQYAKDTQRTTLPHIRSITMEREQDSIIMDAATRRNLEITQNLAGGAENTLASVLDCTVTPMGSRMLKRWLHMPVRDTRVLLERQQTIGALQDFTAGLQPVLRQVGDLERILARLALRTARPRDLARMRHAFQQLPELRAQLETVDSAPVQALREKMGEFAELRDLLERAIIDTPPVLVRDGGVIASGYNEELDEWRALADGATDYLERLEVRERERTGLDTLKVGFNAVHGYYIQISRGQSHLAPINYMRRQTLKNAERYIIPELKEYEDKVLTSKGKALALEKQLYEELFDLLLPHLEALQQSASALAELDVLVNLAERAYTLNYTCPTFIDKPGIRITEGRHPVVEQVLNEPFIANPLNLSPQRRMLIITGPNMGGKSTYMRQTALIALMAYIGSYVPAQKVEIGPIDRIFTRVGAADDLASGRSTFMVEMTETANILHNATEYSLVLMDEIGRGTSTYDGLSLAWACAENLANKIKALTLFATHYFELTQLPEKMEGVANVHLDALEHGDTIAFMHSVQDGAASKSYGLAVAALAGVPKEVIKRARQKLRELESISPNAAATQVDGTQMSLLSVPEETSPAVEALENLDPDSLTPRQALEWIYRLKSLV

Assays:
atomic force microscopy = molecular target: the molecule itself; assay: atomic force microscopy
MutS = molecular target: B1; assay: atomic force microscopy

binding result (MutS) | Binder | stoichiometry N (atomic force microscopy)
 | B1 | 2 and 4
binds | his-MutL (natural protein, E. coli, UniProt P23367 1-615, looked up) MPIQVLPPQLANQIAAGEVVERPASVVKELVENSLDAGATRIDIDIERGGAKLIRIRDNGCGIKKDELALALARHATSKIASLDDLEAIISLGFRGEALASISSVSRLTLTSRTAEQQEAWQAYAEGRDMNVTVKPAAHPVGTTLEVLDLFYNTPARRKFLRTEKTEFNHIDEIIRRIALARFDVTINLSHNGKIVRQYRAVPEGGQKERRLGAICGTAFLEQALAIEWQHGDLTLRGWVADPNHTTPALAEIQYCYVNGRMMRDRLINHAIRQACEDKLGADQQPAFVLYLEIDPHQVDVNVHPAKHEVRFHQSRLVHDFIYQGVLSVLQQQLETPLPLDDEPQPAPRSIPENRVAAGRNHFAEPAAREPVAPRYTPAPASGSRPAAPWPNAQPGYQKQQGEVYRQLLQTPAPMQKLKAPEPQEPALAANSQSFGRVLTIVHSDCALLERDGNISLLSLPVAERWLRQAQLTPGEAPVCAQPLLIPLRLKVSAEEKSALEKAQSALAELGIDFQSDAQHVTIRAVPLPLRQQNLQILIPELIGYLAKQSVFEPGNIAQWIARNLMSEHAQWSMAQAITLLADVERLCPQLVKTPPGGLLQSVDLHPAIKALKDE | 
